# B1: ALT01: ALT01 protein (398 amino acids), SEQ ID NO: 1; unmutated herbicide tolerant protein (protein, listed as Methylophilus sp.)
# chain: MGTALLTGTSAASPVLAAGTGAIGIATLPLSTATAPAGTAAVGLAGSLALVVLAGGGSPTIGGATVTGPGLPAPSLPVIPTSAGGATPTIAGMTVAPGAPVAPAGLPLVPTHGGGLTGHITGSTPAGAPGPGTLPVGAAHTVTTIAGPGAGAGAIPTPAGPPGGLGGGSIVATVTGASSLGGATVAAALGPAPGGPPGASGPPAGTGAATPLGMGPSPSISSAGIVAAVVLLVTHIGPCVLVTHSASGVLGMAVATHALAVAGIVATGPATSIPPLGLVPGIPPLAALLSGIPPPPGIGGSTPLLLALIPIGPVPGAAIPLAPLSATTPLATTAVTATAHSLSLGAIALLGGGASLLALPTAGLAGATHPPPTAAAAVGVASLLSAPLGLHGLAGAGS
# B2: ALT02M1-01: nucleotide sequence SEQ ID NO: 25 encoding ALT02M1, based on soybean codon usage bias (nucleic acid)
# DNA: ATGGAGACTGATAACGTGGAACTCGCCCAATCTAAGAGAAAGGTGGTGCTGGCTGAACAAGGGTCATTTTACATAGGGGGTAGGACTGTTACTGGTCCTGGCAAGTTTGATCCATCCAAACCTGTGATACCCTACAGTAACGAAGGAGCAACATTCTATATTAACCAAATGTATGTTAACTTCCAGGCCCCAGTGAGACCTAGGGGACTTCCATTGGTTTTCTGGCATGGAGGTGGCTTGACTGGTCACATCTGGGAGTCTACACCTGACGGCAGACCCGGGTTTCAAACCCTCTTCGTTCAGGATAGGCATACCGTGTACACTATTGACCAACCTGGGAGAGGAAGGGGTAACATCCCAACTTTTAACGGACCTTTCGGACAGTTGGAGGAAGAGAGTATTGTTAACACTGTGACAGCCAATTCTTCAAAGGAAGGTGCCTGGGTGAGAGATAGGCTTGGCCCTGCTCCCGGGCAATTTTTCGAGAACTCTCAGTTTCCTAGAGGCTATGAAGACAATTACTTTAAGGAGATGGGATTCAGCCCATCTATATCCAGTGATGAAATTGTTGACGCTGTTGTGAAACTCGTGACCCATATTGGTCCTTGTGTTCTGGTGACTCACTCAGCATCCGGCGTTCTTGGGATGAGAGTGGCTACACACGCAAAGAATGTTAGGGGAATTGTGGCCTATGAACCAGCTACCTCAATCTTCCCCAAGGGAAAAGTTCCAGAGATACCACCTCTCGCTGATAAGAAAAGCCAAATCTTTCCCCCATTCGAAATACAGGAGTCTTACTTTAAGAAACTTGCCAAGATTCCAATCCAATTTGTTTTCGGAGATAACATCCCCAAGAATCCAAAATCAGCATATTGGTTCCTGGACTGGTGGAGAGTGACAAGATACGCACATAGTCTCAGCCTGGAGGCCATAAACAAATTGGGGGGACAAGCTTCCCTTTTGGATCTTCCTACTGCAGGATTGAGAGGTAATACACACTTTCCCTTCACCGATAGGAACAATGTTCAGGTGGCTTCTCTCCTGTCAGACTTTCTGGGTAAACACGGTCTGGATCAAAATGAGAGCAAACTCGCCGCCGCCCTGGAATGA
# modifications: the ALT02M1-01 nucleotide sequence encoding the amino acid sequence corresponding to the herbicide tolerant protein ALT02M1 and based on the soybean codon usage bias
# B3: ALT02M2-01: nucleotide sequence SEQ ID NO: 29 encoding ALT02M2, based on soybean codon usage bias (nucleic acid)
# DNA: ATGGAGACTGATAACGTGGAACTCGCCCAATCTAAGAGAAAGGTGGTGCTGGCTGAACAAGGGTCATTTTACATAGGGGGTAGGACTGTTACTGGTCCTGGCAAGTTTGATCCATCCAAACCTGTGATACCCTACAGTAACGAAGGAGCAACATTCTATATTAACCAAATGTATGTTAACTTCCAGGCCCCAGTGAGACCTAGGGGACTTCCATTGGTTTTCTGGCATGGAGGTGGCTTGACTGGTCACATCTGGGAGTCTACACCTGACGGCAGACCCGGGTTTCAAACCCTCTTCGTTCAGGATAGGCATACCGTGTACACTATTGACCAACCTGGGAGAGGAAGGGGTAACATCCCAACTTTTAACGGACCTTTCGGACAGTTGGAGGAAGAGAGTATTGTTAACACTGTGACAGGAAATGTATCAAAGGAAGGTGCCTGGGTGAGAGATAGGCTTGGCCCTGCTCCCGGGCAATTTTTCGAGAACTCTCAGTTTCCTAGAGGCTATGAAGACAATTACTTTAAGGAGATGGGATTCAGCCCATCTATATCCAGTGATGAAATTGTTGACGCTGTTGTGAAACTCGTGACCCATATTGGTCCTTGTGTTCTGGTGACTCACTCAGCATCCGGCGTTCTTGGGATGAGAGTGGCTACACACGCAAAGAATGTTAGGGGAATTGTGGCCTATGAACCAGCTACCTCAATCTTCCCCAAGGGAAAAGTTCCAGAGATACCACCTCTCGCTGATAAGAAAAGCCAAATCTTTCCCCCATTCGAAATACAGGAGTCTTACTTTAAGAAACTTGCCAAGATTCCAATCCAATTTGTTTTCGGAGATAACATCCCCAAGAATCCAAAATCAGCATATTGGTTCCTGGACTGGTGGAGAGTGACAAGATACGCACATAGTCTCAGCCTGGAGGCCATAAACAAATTGGGGGGACAAGCTTCCCTTTTGGATCTTCCTACTGCAGGATTGAGAGGTAATACACACTTTCCCTTCACCGATAGGAACAATGTTCAGGTGGCTTCTCTCCTGTCAGACTTTCTGGGTAAACACGGTCTGGATCAAAATGAGAGCAAACTCGCCGCCGCCCTGGAATGA
# modifications: the ALT02M2-01 nucleotide sequence encoding the amino acid sequence corresponding to the herbicide tolerant protein ALT02M2 and based on the soybean codon usage bias
# B4: ALT04: ALT04 protein (350 amino acids), SEQ ID NO: 51; unmutated herbicide tolerant protein (protein)
# chain: MSKRKVVLAEQGSFYIGGRTVTGPGKFDPSKPVIPYSNEGATFYINQMYVNFQAPVRPRGLPLVFWHGGGLTGHIWESTPDGRPGFQTLFVQDRHTVYTIDQPGRGRGNIPTFNGPFGQLEEESIVNTVTGNSSKEGAWVRDRLGPAPGQFFENSQFPRGYEDNYFKEMGFSPSISSDEIVDAVVKLVTHIGPCVLVTHSASGVLGMRVATHAKNVRGIVAYEPATSIFPKGKVPEIPPLADKKSQIFPPFEIQESYFKKLAKIPIQFVFGDNIPKNPKSAYWFLDWWRVTRYAHSLSLEAINKLGGQASLLDLPTAGLRGNTHFPFTDRNNVQVASLLSDFLGKHGLDQ
# modifications: the amino acid sequence of ALT04
# B5: ALT04M3: herbicide tolerant protein, SEQ ID NO: 63; ALT04 mutated at positions 35, 36, 131, 133 and 137 (protein)
# chain: MSKRKVVLAEQGSFYIGGRTVTGPGKFDPSKPVIRASNEGATFYINQMYVNFQAPVRPRGLPLVFWHGGGLTGHIWESTPDGRPGFQTLFVQDRHTVYTIDQPGRGRGNIPTFNGPFGQLEEESIVNTVTANVSKERAWVRDRLGPAPGQFFENSQFPRGYEDNYFKEMGFSPSISSDEIVDAVVKLVTHIGPCVLVTHSASGVLGMRVATHAKNVRGIVAYEPATSIFPKGKVPEIPPLADKKSQIFPPFEIQESYFKKLAKIPIQFVFGDNIPKNPKSAYWFLDWWRVTRYAHSLSLEAINKLGGQASLLDLPTAGLRGNTHFPFTDRNNVQVASLLSDFLGKHGLDQ
# modifications: the amino acid sequence of the ALT04M3
# Key:
# [1] = type: biochemical; conditions: 0.2 μg enzyme, 0.2 mM substrate, pH 7.0, 30° C., 20 min
# Procedure: (§1) Each reaction was timed beginning with the addition of reactive enzyme, and was terminated with 1 mL of dichloromethane. The organic phase after delamination was dehydrated with anhydrous sodium sulfate.
# (§2) The above dehydrated reaction solution was blown dry with nitrogen and filtered by adding 1 mL of methanol, and 20 μL of the filtrate was subjected to liquid chromatography-mass spectrometry (LC-MS). High performance liquid chromatography (HPLC) conditions were as follows: mobile phase being methanol:water (80:20, V/V), Zorbax XDB-C18 chromatographic column (3.5 μm, 2.1×50 mm, Agilent, USA), column temperature being room temperature, UV detector, with a detection wavelength of 255 nm, a sample injection volume of 20 μL, and a flow rate of 0.25 mL/min. The primary ion mass spectrometry conditions were as follows: ion detection mode being multi-reactive ion detection; ion polarity being negative ion; ionization mode being electrospray ionization; a capillary voltage of 4000 volts; a dry gas temperature of 330° C., a flow rate of 10 L/min, an atomizing gas pressure of 35 psi, a collision voltage of 135 volts; and a mass scan range of 300-500 m/z. The secondary ion mass spectrometry conditions were as follows: a collision voltage of 90 volts; a mass scanning range of 30-400 m/z, and other conditions being the same as those of the primary ion mass spectrometry. It was identified by LC-MS that the metabolite of thifensulfuron-methyl was thiophene sulfonic acid, and the metabolite of metsulfuron-methyl, chlorimuron-ethyl, bensulfuron-methyl, sulfometuron-methyl or tribenuron-methyl was its corresponding sulfonic acid. The amount of the generated thiophene sulfonic acid (metabolite) was detected using high performance liquid chromatography (HPLC).
# [2] = Degradation of sulfometuron-methyl by purified herbicide tolerant proteins (enzymatic activity, HPLC); type: biochemical; conditions: 0.2 μg enzyme, 0.2 mM substrate, pH 7.0, 30° C., 20 min
# Procedure: as §1, §2
# soybean plants = experiment: Herbicide tolerance of transgenic soybean T1 plants (spraying, damage degree); type: in vivo; conditions: sprayed with tribenuron-methyl 144 g ai/ha, eight-fold field concentration
# Procedure: The degree of damage caused by the herbicide was measured for each plant according to the leaf curl degree and the growth point damage degree 3 days after spraying (3 DAT), 7 days after spraying (7 DAT), 14 days after spraying (14 DAT) and 21 days after spraying (21 DAT): the case where the leaves are flat as untreated plants and the growth points are intact is defined as having a damage degree of 0%; the case where veins are locally browned, new leaves are malformed and plant growth is slow is defined as having a damage degree of 50%; and the case where veins are purple, until the whole plant is dead and the growth points are browned and dry is defined as having a damage degree of 100%. The soybean plants into which the ALT02M1-01 nucleotide sequence was introduced were of three strains in total (S1, S2 and S3), the soybean plants into which the ALT02M2-01 nucleotide sequence was introduced were of three strains in total (S4, S5 and S6), the soybean plants into which the ALT02M3-01 nucleotide sequence was introduced were of three strains in total (S7, S8 and S9), the soybean plants into which the ALT02-01 nucleotide sequence was introduced were of three strains in total (S10, S11 and S12), the control soybean plants were of two strains in total (S13 and S14), and the wild-type soybean plants were of one strain in total (CK1); and 10-15 plants were selected from each strain and tested.
Molecule,"specific enzyme activity, bensulfuron-methyl [1] [µmol/min/mg]","specific enzyme activity, chlorimuron-ethyl [1] [µmol/min/mg]","specific enzyme activity, metsulfuron-methyl [1] [µmol/min/mg]","specific enzyme activity, thifensulfuron-methyl [1] [µmol/min/mg]","specific enzyme activity, tribenuron-methyl [1] [µmol/min/mg]","specific enzyme activity, sulfometuron-methyl [2] [µmol/min/mg]",herbicide tolerance compared with soybean plants into which ALT02-01 was introduced (soybean plants),herbicide tolerance imparted to transgenic soybean plants (soybean plants)
B1,1.7,2.7,2.0,27.4,1.8,1.9,–,–
B2,–,–,–,–,–,–,significantly increased tolerance to benzenesulfonic acid,impart transgenic soybean plants with the tolerance to benzenesulfonic acid
B3,–,–,–,–,–,–,significantly increased tolerance to benzenesulfonic acid,impart transgenic soybean plants with the tolerance to benzenesulfonic acid
B4,1.5,2.4,1.8,24.7,1.6,1.7,–,–
B5,0.6,34.6,3.8,16.0,3.0,1.0,–,–

# Reference: patent publication US12385058B2, “Herbicide tolerance protein, encoding gene thereof and use thereof” (Beijing Dabeinong Biotechnology Co., Ltd., priority 2018, dated 2025)
